Reference: patent US20180264110A1 (STSCIENCES, published 2018)

T1: BTLA triple mutant (3NQ) (human, UniProt Q7Z6A9 31-289, limits assumed)
T1 construct: N to Q read from the label
T1 chain: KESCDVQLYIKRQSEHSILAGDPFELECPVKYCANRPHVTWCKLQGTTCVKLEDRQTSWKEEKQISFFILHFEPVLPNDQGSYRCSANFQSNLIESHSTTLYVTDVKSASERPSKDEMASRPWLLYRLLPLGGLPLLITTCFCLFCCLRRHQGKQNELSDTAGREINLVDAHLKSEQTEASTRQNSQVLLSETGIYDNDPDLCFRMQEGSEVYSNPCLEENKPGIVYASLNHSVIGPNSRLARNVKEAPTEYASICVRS


Key:
[1] = biological target: T1, BTLA triple mutant (3NQ); experiment: Western blot
Method: (§1) Immunoblot analysis was performed as described previously (Lim et al., 2008, Gastroenterology, 135:21 28-40; and Lee et al., 2007, Cell, 130:440-455). Image acquisition and quantitation of band intensity were performed using a Chemdoc Imager (BioRad, Hercules, Calif., US). The secondary antibodies were anti-mouse or -rabbit Alexa Fluor 488 or 594, and nuclei were stained with 4′,6-diamidino-2-phenylindole (DAPI) (Life Technologies, Carlsbad, Calif., US).
(§2) In the Western blot assays, anti-BTLA mAbs were tested for their ability to recognize fully glycosylated wild-type BTLA and to recognize certain BTLA mutants lacking two (N75/2NQ, N94/2NQ, N116/2NQ) or all three (3NQ) of BTLA's N-glycosylation sites. […] Generally, the band intensities shown in the Western blots of FIG. 2 indicate the specific glycosylation motif recognized by each of the tested antibodies and the binding strength of the tested antibodies to the recognized glycosylation motifs.

[2] = biological target: T2, N75/2NQ (human, UniProt Q7Z6A9); experiment: Western blot of BTLA WT and glycosylation-site mutants probed with STC613 [continued]
T2 construct: double mutant, single glycosylation site N75; One member of the group m43; also called BTLA double mutant that retains only the N75 glycosylation site
Method: as §1, §2

[3] = biological target: T2, N75/2NQ; experiment: Western blot of BTLA WT and glycosylation-site mutants probed with STC626 [continued]
Method: as §1, §2

Row | binding result [1] | binding result [2] | binding result [3] | Binder
1 | no binding | binds | – | STC613 (antibody, V domains shown, also called STM613) VH: EVQLQQSGAELVRPGASVKLSCTASGFNIRDDYVHWLKQRPDQGLEWIGRIDPANGKTKYDPKFQDKATITADTSSNTAYLQLSSLTSEDTAVYFCVREGGSNYDYAMDYWGQGTSVTVSS VL: not shown
2 | no binding | – | binds | STC626 (antibody, V domains shown) VH: QIQLVQSGPELKKPGETVKISCKASGYTFTNYGMNWVKQAPGKGLKWMGWINTNTGEPTYAEEFKGRIAFSLESSASTAYLQINNLKNEDTATYFCAREGVRRGGYFFDYWGQGTTLTVSS VL: DIQMTQSPASLSVSVGETVTITCRASENIYSNLAWYQQKQGKSPQLLVYAATNLADGVPSRFSGSGSGTQYSLKINSLQSEDFGSYHCQHFWGFPFTFGAGTKLEIKR
